Results: patent US5985583, “Cloning and expression of gonadotropin-releasing hormone receptor” (Mount Sinai School of Medicine of The City University of …, dated 1999)
Values belong to the molecule of their own block, whether it stands above or below them. Non-standard residues stand in square brackets, D forms with d. No end group written: not given here. d(pGlu) = O=C1CC[C@H](C(=O)O)N1; NMeL = CN[C@@H](CC(C)C)C(=O)O

How the values were obtained:
[1] = target: human gonadotropin-releasing hormone receptor (GnRH-R), clone LC27-4 (human)
[2] = target: human gonadotropin-releasing hormone receptor (GnRH-R), clone LC27-4 (human); assay: Kd derived by the filing from the IC50 of inhibition of GnRH-stimulated inositol phosphate production in COS-1 cells expressing the human GnRH-R
[3] = target: T1, mouse gonadotropin-releasing hormone receptor (GnRH-R), clone WZ25 (mouse); assay: displacement of 125I-GnRH-A by GnRH-A, membranes of WZ25 RNA-injected oocytes
T1 chain: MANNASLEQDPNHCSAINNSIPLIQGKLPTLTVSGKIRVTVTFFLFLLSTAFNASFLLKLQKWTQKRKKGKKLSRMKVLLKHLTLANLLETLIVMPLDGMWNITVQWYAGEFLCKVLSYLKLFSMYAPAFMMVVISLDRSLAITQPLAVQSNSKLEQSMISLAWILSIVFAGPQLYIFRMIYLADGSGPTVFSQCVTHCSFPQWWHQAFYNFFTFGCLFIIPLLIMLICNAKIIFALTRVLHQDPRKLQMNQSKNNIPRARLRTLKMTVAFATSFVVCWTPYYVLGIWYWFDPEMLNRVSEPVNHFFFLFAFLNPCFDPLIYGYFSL
Procedure: (§1) For membrane preparation, 500 oocytes were each injected with 2.5 ng synthetic WZ25 RNA. After 48 hours, oocyte membranes were prepared as described (Kobilka et al., 1987, J. Biol. Chem. 262: 15796–15802) and resuspended in binding buffer containing 10 mM HEPES, 1 mM EDTA, and 0.1% bovine serum albumin to give a final concentration of 20 oocytes/ml.
(§2) To further characterize the receptor encoded by this cDNA clone, radioligand binding assays were performed on membranes purified from oocytes injected with the WZ25 RNA transcript.

[4] = target: T1, mouse gonadotropin-releasing hormone …; assay: displacement of 125I-GnRH-A by GnRH-A, αT3-1 cell membranes (endogenous mouse receptor)
[5] = target: T2, human gonadotropin-releasing hormone receptor (GnRH-R), clone LC27-4 (human); assay: displacement of 125I-GnRH-A, membranes of COS-1 cells transfected with the human GnRH-R
T2 chain: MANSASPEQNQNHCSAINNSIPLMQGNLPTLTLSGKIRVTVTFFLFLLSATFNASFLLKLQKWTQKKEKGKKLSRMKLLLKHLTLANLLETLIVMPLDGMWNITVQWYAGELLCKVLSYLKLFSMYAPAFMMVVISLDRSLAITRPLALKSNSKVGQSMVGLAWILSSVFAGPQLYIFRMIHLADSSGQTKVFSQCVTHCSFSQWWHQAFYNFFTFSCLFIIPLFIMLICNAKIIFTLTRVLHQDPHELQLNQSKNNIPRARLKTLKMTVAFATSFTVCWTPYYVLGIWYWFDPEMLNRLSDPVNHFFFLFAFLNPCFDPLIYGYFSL
Procedure: (§3) For studies on inositol phosphate production, 1.8 ×10^5 cells/well (12-well plates) were transfected with 1.5 μg DNA. Cells were assayed 48 hours after transfection.
Cell membranes were prepared from transfected cells with a single centrifugation step as described for rat pituitaries (Millar et al., 1989, J. Biol. Chem. 264:21007–21013).

[6] = target: T1, mouse gonadotropin-releasing hormone …; assay: displacement of 125I-GnRH-A by GnRH, membranes of WZ25 RNA-injected oocytes
Procedure: as §1, §2

[7] = target: T2, human gonadotropin-releasing hormone …; assay: Kd derived by the filing from the IC50 of inhibition of GnRH-stimulated inositol phosphate production in COS-1 cells expressing the human GnRH-R
Procedure: as §3

IC50 of inhibition of GnRH-stimulated (10-8 M) inositol phosphate production in COS-1 cells transfected with pSV2A-human GnRH-R [1]: 6.7e-09 M | Kd [2]: 0.21 nM
Molecule: antagonist 13: [Ac-D-NaI1,D-α-4-ClPhe2, D-Pal3,D-Arg6, D-Ala10]GnRH (from UniProt P01148) (peptide)

EC50 of inositol phosphate production in COS-1 cells transfected with pSV2A-human GnRH-R [1]: 3 nM | inositol phosphate production in COS-1 cells transfected with pSV2A-human GnRH-R [1]: 8 fold
Molecule: gonadotropin-releasing hormone (GnRH) (from UniProt P01148) (peptide)

Kd [3]: 4.5 nM | Kd [4]: 2.9 nM | Kd [5]: 0.97 nM
Molecule: QHWSY[dA][NMeL]RP-NHEt (ends and bridges not checked; also: 125I label on the tracer form) [[D-Ala6, NαMe-Leu7, Pro9-NHEt]GnRH (GnRH-A)]

Further lines, the molecule ahead of its results:

Molecule: QHWSYGLRPG [gonadotropin-releasing hormone (GnRH)]
binding result [6]: binds

Molecule: [d(pGlu)][dF][dW]SY[dW]LRPG (ends and bridges not checked) [antagonist 5: [D-pGlu1,D-Phe2,D-Trp3,6]GnRH]
IC50 of inhibition of GnRH-stimulated (10-8 M) inositol phosphate production in COS-1 cells transfected with pSV2A-human GnRH-R [1]: 1.05e-07 M | Kd [5]: 8.4 nM | Kd [7]: 3.6 nM
